{"source": "patent US20110177056A1", "target": "EGF receptor (ErbB1) on A431 cells (UniProt P00533)", "assay": "cell-based or functional assay"}
{"binder": "EGF variant v3 (EGFv3) (ligand) NSDPKCPLSHEGYCLNDGVCMYIGTLDRYACNCVVGYVGERCQYRDLKLAELR", "values": [{"measurement": "pEC50 (phosphoY1068 EGF receptor, MSD electrochemiluminescence, A431 cells)", "value": 7.61, "unit": "pEC50"}]}
